Source: article PMC3580866

Assays:
[1] = target: human SLBP (hSLBP), Stem-Loop Binding Protein RNA binding domain (RBD/RPD) (UniProt Q14493); assay: mass spectrometry of oligomer peaks; settings: reference: bacterially expressed unphosphorylated RBD; sites T171
[2] = target: human SLBP RNA binding domain, phosphorylated at Thr171, baculovirus expressed (human); assay: electrospray mass spectrometry
[3] = target: human SLBP RNA binding domain, unphosphorylated, bacterially expressed (human); assay: MALDI-TOF mass spectrometry

## human SLBP (hSLBP), Stem-Loop Binding Protein RNA binding domain (RBD/RPD) (from UniProt Q14493) baculovirus-expressed phosphorylated RBD
[1]
  other: percent of mass as dimer: weaker; reference 35.3

## human SLBP RNA binding domain, phosphorylated at Thr171, baculovirus expressed (domain or fragment)
[2]
  percent of the mass spectrum as dimer: 5.6%
  percent of the mass spectrum as tetramer: 3.8%
  percent of the mass spectrum as trimer: 3.9%

## human SLBP RNA binding domain, unphosphorylated, bacterially expressed (domain or fragment)
[3]
  percent of the mass spectrum as dimer: 35.3%
  percent of the mass spectrum as hexamer: 9.7%
  percent of the mass spectrum as tetramer: 12.4%
  percent of the mass spectrum as trimer: 9.9%
